Data on two molecules can be found in patent publication CN101233156A (MEDAREX INC, dated 2008).

In general, Kd refers to a measure of binding affinity in units of concentration. A lower Kd goes with tighter binding.

In the assay the target is T1, 人CD 19 (细胞表面上表达: Raji、Daudi、ARH-77细胞, 人CD 19转染的CHO细胞) (human, UniProt P15391 20-556).
T1 construct: CD19 on the surface of B cell tumour lines (endogenous) or of CHO cells transfected with full-length cDNA of the transmembrane form; it is not tied word for word to the cells used; also called CHO-CD 19; CD 19-CHO
T1 sequence: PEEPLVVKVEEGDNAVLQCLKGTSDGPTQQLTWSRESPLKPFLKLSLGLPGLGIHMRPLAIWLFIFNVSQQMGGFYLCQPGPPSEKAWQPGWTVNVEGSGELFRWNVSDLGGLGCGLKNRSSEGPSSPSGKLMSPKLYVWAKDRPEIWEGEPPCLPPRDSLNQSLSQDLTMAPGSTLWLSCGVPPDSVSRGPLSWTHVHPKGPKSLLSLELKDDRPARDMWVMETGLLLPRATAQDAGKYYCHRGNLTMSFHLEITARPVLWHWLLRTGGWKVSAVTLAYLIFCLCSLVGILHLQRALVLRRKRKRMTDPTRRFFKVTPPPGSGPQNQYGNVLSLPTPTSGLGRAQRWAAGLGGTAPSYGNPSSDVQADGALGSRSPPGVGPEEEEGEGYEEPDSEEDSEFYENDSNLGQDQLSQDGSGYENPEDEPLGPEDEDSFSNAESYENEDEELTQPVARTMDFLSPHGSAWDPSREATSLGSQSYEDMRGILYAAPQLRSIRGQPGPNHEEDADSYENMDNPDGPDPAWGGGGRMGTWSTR
As to the kind of experiment: Scatchard analysis, 125I-labelled antibody on Raji cells.

B1: 抗CD 19人单克隆抗体47G4 (antibody, V domains shown)
VH: QVQLVQSGAEVKKPGSSVKVSCKDSGGTFSSYAISWVRQAPGQGLEWMGGIIPIFGTTNYAQQFQGRVTITADESTSTAYMELSSLRSEDTAVYYCAREAVAADWLDPWGQGTLVTVSS
VL: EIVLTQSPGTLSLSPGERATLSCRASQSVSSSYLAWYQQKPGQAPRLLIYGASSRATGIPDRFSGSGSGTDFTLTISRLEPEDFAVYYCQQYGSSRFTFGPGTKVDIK
notes: 125I-labelled in the Scatchard assay; also called HuMAb 47G4; CD 19 HuMab 47G4
For the molecule B1, the Kd was approximately 12 nM.

B2: 抗CD 19人单克隆抗体21D4 (antibody, V domains shown)
VH: EVQLVQSGAEVKKPGESLKISCKGSGYSFSSSWIGWVRQMPGKGLEWMGIIYPDDSDTRYSPSFQGQVTISADKSIRTAYLQWSSLKASDTAMYYCARHVTMIWGVIIDFWGQGTLVTVSS
VL: AIQLTQSPSSLSASVGDRVTITCRASQGISSALAWYQQKPGKAPKLLIYDASSLESGVPSRFSGSGSGTDFTLTISSLQPEDFATYYCQQFNSYPYTFGQGTKLEIK
notes: Human monoclonal antibody from KM mouse hybridoma; also called HuMAb 21D4; HuMab 21D4
On to B2, for which the Kd was approximately 2.14 nM.
